Assay results reported in the supplement of paper PMC10065799, “High-throughput profiling of sequence recognition by tyrosine kinases and SH2 domains using bacterial peptide display” (eLife, 2023).

Key:
AncSZ = assay: phosphorylation enrichment, bacterial display (enrichment ratio); higher = better substrate or ligand; peptides without Tyr show the background
EPHB1 = EPHB1 (UniProt P54762); assay: as above
EPHB2 = EPHB2 (UniProt P29323); assay: as above
FGFR1 = FGFR1 (UniProt P11362); assay: as above
Chain of FGFR1 (P11362 whole entry, looked up): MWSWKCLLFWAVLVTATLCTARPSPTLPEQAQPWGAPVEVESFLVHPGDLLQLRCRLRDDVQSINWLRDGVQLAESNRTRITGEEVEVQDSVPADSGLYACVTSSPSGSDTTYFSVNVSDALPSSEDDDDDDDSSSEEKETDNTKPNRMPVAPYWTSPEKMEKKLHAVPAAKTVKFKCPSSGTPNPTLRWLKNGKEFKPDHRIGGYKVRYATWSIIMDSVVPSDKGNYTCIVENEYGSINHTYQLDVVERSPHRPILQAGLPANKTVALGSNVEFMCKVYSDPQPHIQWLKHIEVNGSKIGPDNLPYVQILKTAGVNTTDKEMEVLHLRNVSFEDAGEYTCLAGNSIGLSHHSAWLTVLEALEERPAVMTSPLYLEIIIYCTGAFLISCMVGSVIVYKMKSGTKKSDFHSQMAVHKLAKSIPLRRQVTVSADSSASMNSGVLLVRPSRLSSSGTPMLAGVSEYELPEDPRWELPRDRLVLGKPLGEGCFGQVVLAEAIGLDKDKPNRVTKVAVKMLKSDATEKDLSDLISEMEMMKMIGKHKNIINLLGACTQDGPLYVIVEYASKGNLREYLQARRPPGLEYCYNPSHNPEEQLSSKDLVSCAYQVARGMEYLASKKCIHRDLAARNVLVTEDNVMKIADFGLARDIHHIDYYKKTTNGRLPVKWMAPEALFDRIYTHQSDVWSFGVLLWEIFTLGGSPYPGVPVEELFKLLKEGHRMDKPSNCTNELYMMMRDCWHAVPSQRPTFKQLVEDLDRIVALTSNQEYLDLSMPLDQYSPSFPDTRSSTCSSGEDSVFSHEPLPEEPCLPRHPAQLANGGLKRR

FGFR3 = FGFR3 (UniProt P22607); assay: as above
Chain of FGFR3 (P22607 whole entry, looked up): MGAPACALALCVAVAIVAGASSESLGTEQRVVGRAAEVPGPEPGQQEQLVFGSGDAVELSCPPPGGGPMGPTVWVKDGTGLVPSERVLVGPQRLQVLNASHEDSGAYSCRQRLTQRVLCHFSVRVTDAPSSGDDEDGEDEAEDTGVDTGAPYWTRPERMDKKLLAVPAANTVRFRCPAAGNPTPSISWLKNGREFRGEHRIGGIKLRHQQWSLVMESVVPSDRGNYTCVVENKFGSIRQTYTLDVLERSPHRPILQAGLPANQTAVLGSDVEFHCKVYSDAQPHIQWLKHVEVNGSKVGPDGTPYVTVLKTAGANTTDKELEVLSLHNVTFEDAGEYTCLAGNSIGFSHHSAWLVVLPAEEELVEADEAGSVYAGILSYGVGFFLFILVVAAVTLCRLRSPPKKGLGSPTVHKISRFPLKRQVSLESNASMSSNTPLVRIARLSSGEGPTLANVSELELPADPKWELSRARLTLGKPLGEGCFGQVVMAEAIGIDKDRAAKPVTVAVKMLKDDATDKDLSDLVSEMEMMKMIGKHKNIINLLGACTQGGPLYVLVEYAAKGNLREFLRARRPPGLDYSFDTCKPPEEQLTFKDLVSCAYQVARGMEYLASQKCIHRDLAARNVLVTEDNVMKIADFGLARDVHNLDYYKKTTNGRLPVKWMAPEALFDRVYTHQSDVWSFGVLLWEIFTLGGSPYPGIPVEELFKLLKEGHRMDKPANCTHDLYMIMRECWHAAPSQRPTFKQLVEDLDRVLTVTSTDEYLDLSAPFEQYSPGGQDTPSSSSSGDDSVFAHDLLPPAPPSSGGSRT

Fer (mouse) = assay: as above
Fes = Fes (UniProt P07332); assay: as above
Chain of Fes (P07332 whole entry, looked up): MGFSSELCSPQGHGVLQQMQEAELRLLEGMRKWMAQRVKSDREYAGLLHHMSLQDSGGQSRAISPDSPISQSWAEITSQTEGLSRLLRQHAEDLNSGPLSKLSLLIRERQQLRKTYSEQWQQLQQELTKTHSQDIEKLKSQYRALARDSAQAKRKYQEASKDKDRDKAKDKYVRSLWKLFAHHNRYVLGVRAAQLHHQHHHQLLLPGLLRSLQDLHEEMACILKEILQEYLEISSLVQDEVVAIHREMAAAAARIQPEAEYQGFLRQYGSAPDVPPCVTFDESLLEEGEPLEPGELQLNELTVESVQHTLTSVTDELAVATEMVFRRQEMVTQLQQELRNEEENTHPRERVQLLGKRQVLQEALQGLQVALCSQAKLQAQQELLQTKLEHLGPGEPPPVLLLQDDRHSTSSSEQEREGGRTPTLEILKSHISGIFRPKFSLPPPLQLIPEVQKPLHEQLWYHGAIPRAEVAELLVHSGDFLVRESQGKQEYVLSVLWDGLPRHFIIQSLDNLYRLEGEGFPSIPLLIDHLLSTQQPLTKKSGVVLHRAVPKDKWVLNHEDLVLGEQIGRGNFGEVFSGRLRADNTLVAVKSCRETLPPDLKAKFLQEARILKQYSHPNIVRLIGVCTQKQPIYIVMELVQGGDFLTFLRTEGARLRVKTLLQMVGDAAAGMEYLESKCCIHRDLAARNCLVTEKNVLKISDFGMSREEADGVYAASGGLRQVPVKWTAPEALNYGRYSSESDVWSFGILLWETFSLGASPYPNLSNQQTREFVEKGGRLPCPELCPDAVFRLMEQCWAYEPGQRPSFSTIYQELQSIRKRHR

Fyn = Fyn (UniProt P06241); assay: as above
Chain of Fyn (P06241 whole entry, looked up): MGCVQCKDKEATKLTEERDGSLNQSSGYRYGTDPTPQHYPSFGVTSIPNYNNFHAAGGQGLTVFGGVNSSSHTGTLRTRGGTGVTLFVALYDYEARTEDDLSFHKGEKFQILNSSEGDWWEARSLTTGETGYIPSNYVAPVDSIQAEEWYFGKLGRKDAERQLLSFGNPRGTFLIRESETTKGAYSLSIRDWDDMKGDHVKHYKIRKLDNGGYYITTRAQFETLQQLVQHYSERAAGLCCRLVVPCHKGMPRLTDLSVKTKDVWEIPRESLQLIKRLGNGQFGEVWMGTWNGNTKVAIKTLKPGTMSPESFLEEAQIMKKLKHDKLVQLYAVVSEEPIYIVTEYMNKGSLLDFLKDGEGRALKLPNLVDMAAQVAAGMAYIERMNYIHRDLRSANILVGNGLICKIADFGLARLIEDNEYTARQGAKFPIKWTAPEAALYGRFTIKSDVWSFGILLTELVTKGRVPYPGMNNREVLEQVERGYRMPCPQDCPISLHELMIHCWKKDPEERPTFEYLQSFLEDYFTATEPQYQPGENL

Hck = Hck (UniProt P08631); assay: as above
Chain of Hck (P08631 whole entry, looked up): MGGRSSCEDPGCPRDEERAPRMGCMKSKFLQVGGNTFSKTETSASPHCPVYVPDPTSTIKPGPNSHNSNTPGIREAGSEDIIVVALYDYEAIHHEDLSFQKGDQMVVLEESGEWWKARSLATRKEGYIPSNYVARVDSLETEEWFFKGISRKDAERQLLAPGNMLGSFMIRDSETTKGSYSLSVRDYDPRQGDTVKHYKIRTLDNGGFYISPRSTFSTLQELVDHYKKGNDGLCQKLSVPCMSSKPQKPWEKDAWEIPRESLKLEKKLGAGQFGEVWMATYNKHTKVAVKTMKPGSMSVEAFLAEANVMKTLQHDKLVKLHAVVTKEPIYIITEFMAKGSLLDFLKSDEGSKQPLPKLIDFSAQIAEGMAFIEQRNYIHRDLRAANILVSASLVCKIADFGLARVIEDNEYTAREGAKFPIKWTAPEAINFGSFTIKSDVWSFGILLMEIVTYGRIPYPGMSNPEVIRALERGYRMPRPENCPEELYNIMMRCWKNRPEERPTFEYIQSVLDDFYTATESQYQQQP

Jak2 = Jak2 (UniProt O60674); assay: as above
MERTK = MERTK (UniProt Q12866); assay: as above
c-Abl (mouse) = assay: as above
c-Src = assay: as above
Grb2 SH2 = Grb2 SH2 (UniProt P62993); assay: SH2 binding enrichment of the phosphorylated peptide, bacterial display (enrichment ratio); higher = better substrate or ligand; peptides without Tyr show the background
SHP2-C SH2 = assay: as above
c-Src SH2 = assay: as above
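Wherever SH2 binding enrichment of the phosphorylated peptide, bacterial display is given: peptide library displayed on the E. coli surface as eCPX fusions, selected cells deep-sequenced, score is each peptide's frequency after selection divided by its frequency in the input.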
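Wherever phosphorylation enrichment, bacterial display is given: 11-residue human phosphosite peptides and single-mutation variants displayed on the E. coli surface, counted by deep sequencing, each peptide's frequency after selection divided by its frequency in the unselected input library; frequency after pTyr selection over input frequency; kinase dosed for 20-30% of maximal phosphorylation in three min.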

Chain of EPHB1 (P54762 whole entry, looked up): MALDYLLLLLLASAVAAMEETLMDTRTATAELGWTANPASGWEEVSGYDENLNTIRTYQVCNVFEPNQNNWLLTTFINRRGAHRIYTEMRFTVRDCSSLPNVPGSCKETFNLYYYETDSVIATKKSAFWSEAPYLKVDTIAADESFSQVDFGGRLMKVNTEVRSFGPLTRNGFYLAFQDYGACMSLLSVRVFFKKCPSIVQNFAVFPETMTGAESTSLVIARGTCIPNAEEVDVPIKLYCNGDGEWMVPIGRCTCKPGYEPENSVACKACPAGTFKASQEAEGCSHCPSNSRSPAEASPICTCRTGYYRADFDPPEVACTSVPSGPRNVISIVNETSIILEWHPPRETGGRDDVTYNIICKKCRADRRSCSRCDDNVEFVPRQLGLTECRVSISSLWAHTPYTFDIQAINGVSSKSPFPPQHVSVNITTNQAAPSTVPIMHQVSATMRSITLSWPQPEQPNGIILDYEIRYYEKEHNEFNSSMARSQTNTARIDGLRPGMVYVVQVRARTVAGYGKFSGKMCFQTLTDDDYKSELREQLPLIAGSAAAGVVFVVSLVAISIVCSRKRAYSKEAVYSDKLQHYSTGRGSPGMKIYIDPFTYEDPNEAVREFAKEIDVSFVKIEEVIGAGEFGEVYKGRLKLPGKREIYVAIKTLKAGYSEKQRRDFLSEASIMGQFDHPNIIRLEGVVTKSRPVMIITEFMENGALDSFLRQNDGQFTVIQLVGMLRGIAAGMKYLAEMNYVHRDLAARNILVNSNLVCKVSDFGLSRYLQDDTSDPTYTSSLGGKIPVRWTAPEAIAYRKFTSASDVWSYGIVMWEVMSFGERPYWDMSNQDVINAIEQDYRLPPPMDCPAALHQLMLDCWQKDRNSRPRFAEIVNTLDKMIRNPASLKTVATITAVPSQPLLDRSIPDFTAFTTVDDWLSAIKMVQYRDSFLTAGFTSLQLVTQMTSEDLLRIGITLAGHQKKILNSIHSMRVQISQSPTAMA

| Sequence | SH2 binding enrichment (Grb2 SH2) | SH2 binding enrichment (SHP2-C SH2) | SH2 binding enrichment (c-Src SH2) | phosphorylation enrichment (AncSZ) | phosphorylation enrichment (EPHB1) | phosphorylation enrichment (EPHB2) | phosphorylation enrichment (FGFR1) | phosphorylation enrichment (FGFR3) | phosphorylation enrichment (Fer (mouse)) | phosphorylation enrichment (Fes) | phosphorylation enrichment (Fyn) | phosphorylation enrichment (Hck) | phosphorylation enrichment (Jak2) | phosphorylation enrichment (MERTK) | phosphorylation enrichment (c-Abl (mouse)) | phosphorylation enrichment (c-Src) |
| --- | --- | --- | --- | --- | --- | --- | --- | --- | --- | --- | --- | --- | --- | --- | --- | --- |
| RIVTTYIRERE [DNM2_Y463] | 0.71 | 0.655 | 0.518 | 1.12 | 0.477 | 0.75 | 0.616 | 0.682 | 0.649 | 1.06 | 0.811 | 0.874 | 0.795 | 0.758 | 0.741 | 0.499 |
| LDYNEYFRNLN [HPRT1_Y198_D201N] | 0.81 | 0.967 | 0.507 | 2.08 | 0.559 | 0.751 | 0.596 | 0.844 | 0.48 | 1.14 | 0.49 | 0.69 | 1.79 | 0.382 | 0.849 | 0.657 |
| VVTGPYEKPSL [KIR3DS1_Y221_L220P] | 0.875 | 0.636 | 0.704 | 1.04 | 0.55 | 0.513 | 0.581 | 0.491 | 0.665 | 0.746 | 0.473 | 0.503 | 0.69 | 0.45 | 0.966 | 0.472 |
| KFMVGYEMIAQ [GALT_Y339_L342I] | 0.914 | 0.884 | 7.36 | 1.03 | 0.58 | 0.569 | 0.492 | 0.723 | 0.487 | 1.06 | 0.444 | 0.507 | 0.956 | 0.457 | 0.696 | 0.427 |
| SHRQDYLVGNK [GSTA1_Y147_G144R] | 0.55 | 0.802 | 0.501 | 0.441 | 0.488 | 0.431 | 0.324 | 0.415 | 0.334 | 0.665 | 0.435 | 0.397 | 0.466 | 0.311 | 0.867 | 0.385 |
| ALVLQYLRVPL [F9_Y371] | 1.8 | 1.74 | 1.66 | 1.03 | 0.61 | 0.5 | 0.582 | 0.662 | 0.55 | 1.02 | 0.455 | 0.536 | 1.6 | 0.378 | 0.62 | 0.39 |
| SLIDGYFRLTA [JAK2_Y372_YF] | 1.01 | 5.5 | 1.13 | 1.1 | 0.539 | 0.716 | 0.605 | 0.875 | 0.514 | 1.26 | 0.493 | 0.583 | 5.46 | 0.429 | 0.732 | 0.483 |
| MENFIYESMQY [CYP19A1_Y361_R365Q] | 0.914 | 0.954 | 0.786 | 1.37 | 7.15 | 5.02 | 0.652 | 0.724 | 13.3 | 3.36 | 9.05 | 7.07 | 0.894 | 3.64 | 1.24 | 6.84 |
| DPEGAYTTRGG [EPHA3_Y779_A777G] | 0.979 | 0.911 | 0.524 | 0.896 | 0.497 | 0.501 | 0.369 | 0.534 | 0.515 | 0.798 | 0.394 | 0.483 | 0.774 | 0.412 | 0.789 | 0.536 |
| ALRHYYKLNII [ETV6_Y402] | 1.54 | 1.42 | 1.35 | 0.968 | 0.579 | 0.533 | 1.3 | 1.36 | 0.693 | 1.28 | 0.506 | 0.527 | 1.3 | 0.522 | 0.839 | 0.427 |
| EFISEYCGEII [EZH2_Y641] | 0.947 | 0.809 | 0.617 | 1.61 | 0.901 | 0.716 | 0.604 | 1.05 | 0.678 | 1.33 | 0.692 | 0.664 | 1.05 | 0.616 | 0.905 | 0.576 |
| LEHCQYVTQKV [ALDOB_Y204_E207Q] | 0.957 | 1.18 | 0.731 | 1.01 | 0.818 | 0.924 | 0.656 | 0.763 | 0.648 | 1.04 | 0.47 | 0.507 | 1.03 | 0.401 | 0.727 | 0.617 |
| IGRGSYAKVLL [PRKCZ_Y263] | 0.996 | 11.5 | 5.41 | 0.611 | 0.363 | 0.367 | 0.348 | 0.394 | 0.375 | 0.545 | 0.384 | 0.419 | 0.458 | 0.452 | 0.468 | 0.34 |
| HMRLRYLAAEE [CEP120_Y884_Q879H] | 1.14 | 1.39 | 1.18 | 1.22 | 0.587 | 0.552 | 0.412 | 0.939 | 0.75 | 1.89 | 0.722 | 0.53 | 1.03 | 0.452 | 1.3 | 0.659 |
| TLMNAYSSRSH [KIF11_Y231] | 0.707 | 0.552 | 0.427 | 0.675 | 0.436 | 0.517 | 0.449 | 0.44 | 0.514 | 0.579 | 0.517 | 0.516 | 1.08 | 0.636 | 0.57 | 0.54 |
| DRFANYIEKVR [DES_Y122] | 0.769 | 0.743 | 0.473 | 0.628 | 0.523 | 0.424 | 0.419 | 0.508 | 0.41 | 0.759 | 0.434 | 0.42 | 1.02 | 0.367 | 0.728 | 0.425 |
| IKKLIYVFLVI [JAGN1_Y42_H44Y_YF] | 2 | 1.79 | 1.22 | 0.884 | 0.556 | 0.547 | 0.716 | 0.797 | 0.454 | 1.1 | 0.462 | 0.393 | 0.736 | 0.547 | 0.701 | 0.424 |
| NHRNQYQALKT [CLSPN_Y887_P892T] | 0.994 | 1 | 1.17 | 0.536 | 0.422 | 0.43 | 0.503 | 0.439 | 0.499 | 0.656 | 0.451 | 0.506 | 0.48 | 0.4 | 0.753 | 0.364 |

More lines, main results first:

| SH2 binding enrichment (Grb2 SH2) | SH2 binding enrichment (SHP2-C SH2) | SH2 binding enrichment (c-Src SH2) | Sequence | phosphorylation enrichment (AncSZ) | phosphorylation enrichment (EPHB1) | phosphorylation enrichment (EPHB2) | phosphorylation enrichment (FGFR1) | phosphorylation enrichment (FGFR3) | phosphorylation enrichment (Fer (mouse)) | phosphorylation enrichment (Fes) | phosphorylation enrichment (Fyn) | phosphorylation enrichment (Hck) | phosphorylation enrichment (Jak2) | phosphorylation enrichment (MERTK) | phosphorylation enrichment (c-Abl (mouse)) | phosphorylation enrichment (c-Src) |
| --- | --- | --- | --- | --- | --- | --- | --- | --- | --- | --- | --- | --- | --- | --- | --- | --- |
| 0.984 | 0.705 | 0.714 | SSDKVCAHQMV [MLH1_Y379_Y379C] | 0.587 | 0.379 | 0.443 | 0.397 | 0.536 | 0.356 | 0.606 | 0.388 | 0.4 | 0.563 | 0.859 | 0.587 | 0.361 |
| 1.09 | 1.19 | 0.833 | IYHLSYHHNCE [PDE6B_Y227_L228H] | 1.29 | 0.703 | 0.602 | 1.32 | 1.17 | 0.671 | 1.34 | 2.15 | 1.51 | 1.03 | 3.55 | 2.09 | 2.29 |
| 0.824 | 0.679 | 0.484 | ELCSEYHKSRK [SPINK5_Y440_R441H] | 0.73 | 0.405 | 0.412 | 0.513 | 0.53 | 0.507 | 1.02 | 0.487 | 0.442 | 0.945 | 0.532 | 0.999 | 0.633 |
| 0.898 | 0.896 | 0.786 | TLNFCYQQVKS [PTK2_Y148_F147C] | 1.25 | 0.718 | 0.709 | 0.617 | 0.884 | 0.501 | 1.28 | 0.44 | 0.52 | 1.07 | 0.399 | 0.936 | 0.524 |
| 0.71 | 1.16 | 0.575 | ILGRFYERGSI [PAX5_Y73_T75R_YF] | 0.651 | 0.392 | 0.476 | 0.413 | 0.517 | 0.398 | 0.674 | 0.483 | 0.486 | 0.662 | 0.395 | 0.532 | 0.451 |
| 0.99 | 0.787 | 0.573 | RGGWVYVLHPT [TRMT61A_Y67] | 1.8 | 1.07 | 0.856 | 0.853 | 1.03 | 0.766 | 1.66 | 1.25 | 0.909 | 1.2 | 0.493 | 0.702 | 0.895 |
| 0.98 | 0.767 | 0.698 | TKQLTYEEQFL [PIK3C3_Y310_D314Y_YF] | 1.1 | 0.611 | 0.622 | 0.497 | 0.65 | 1.03 | 1.08 | 0.509 | 0.419 | 0.861 | 0.502 | 0.661 | 0.5 |
| 1.29 | 1.13 | 0.783 | QRPFVYFFSFL [PTEN_Y176_R173P_YF] | 1.23 | 0.783 | 0.703 | 0.789 | 1.39 | 0.707 | 1.54 | 0.721 | 0.426 | 1.33 | 0.664 | 0.967 | 0.748 |
| 0.854 | 0.478 | 0.581 | RSAGKDDVYLI [MECP2_Y120_Y120D] | 0.755 | 0.551 | 0.603 | 0.513 | 0.594 | 0.521 | 0.862 | 1.14 | 0.616 | 0.658 | 0.399 | 0.486 | 1.25 |
| 0.664 | 0.702 | 0.505 | ARLDEYIAIAK [RCOR3_Y46_K42R] | 0.649 | 0.442 | 0.51 | 0.446 | 0.562 | 0.428 | 0.621 | 0.391 | 0.447 | 0.683 | 0.598 | 0.516 | 0.458 |
| 0.759 | 0.546 | 6.48 | AAVPAYDKIQV [STXBP2_Y401_R405Q] | 0.92 | 0.793 | 0.417 | 0.66 | 0.666 | 5.58 | 1.43 | 0.612 | 1.09 | 1.06 | 0.688 | 0.96 | 0.593 |
| 0.717 | 0.539 | 0.4 | ADLTEYLSTHF [UQCRC1_Y219_YF] | 1.43 | 0.681 | 0.672 | 0.699 | 0.923 | 0.493 | 1.35 | 0.577 | 0.604 | 1.2 | 0.571 | 0.958 | 0.561 |
| 0.718 | 0.537 | 0.47 | DVMDFYKTLRG [NR3C1_Y30] | 0.719 | 0.404 | 0.423 | 0.393 | 0.484 | 0.41 | 0.728 | 0.451 | 0.434 | 0.685 | 0.394 | 0.571 | 0.342 |
| 0.832 | 0.722 | 0.485 | FPLELYERVRM [PRKCG_Y312_YF] | 1.39 | 1.94 | 0.982 | 0.988 | 0.932 | 2.39 | 1.28 | 0.629 | 1.24 | 1.09 | 0.444 | 0.804 | 0.488 |
| 0.93 | 0.946 | 0.76 | KKFPDYIQIAM [SGMS2_Y59_YF] | 1.13 | 4.26 | 0.672 | 8.61 | 5.17 | 0.427 | 1.06 | 0.468 | 0.496 | 1.07 | 0.461 | 0.7 | 0.556 |
